Measurements reported in the nanobody polyreactivity screen of Harvey et al. (2022).

Assay: yeast display, Sf9 membrane polyspecificity reagent, FACS + sequencing; frameworks hold sequencing errors
Summary of the method: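 A nanobody's polyreactivity label depends on the gate it was sorted from. Yeast display cells were stained with 10% biotinylated, detergent-solubilized Sf9 membrane reagent for 1 hour at 4 °C, enriched on streptavidin microbeads and sorted by FACS. The low and high (top ~1%) gates were set on anti-HA fluorescence for expression and streptavidin fluorescence for reagent binding.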

Sequence	polyreactivity (PSR sort gate)
QVQLVESGGGLVQAGGRLRLSCAASGSTLSANAMGWYSPAPGKERELVAAISRRSGGTYYADSVKGRFTISRDNAKNSVYLQMNSLKPEDTAVYYCIKVLKDPHTWGWVDYDYCGQGTQVTVSS	high polyreactivity
QVQLVESGGGLVQAGGRLRLSCAASGSTLYPNAMGWSRQAPGKDRELVAAISSGSSTYADSVKGRFTISRDNAKNTVYLQMNSLKPADTAVYYCNADAPIHYDYWGQGTQVTVSS	low polyreactivity
QVQLVESGGGLVQAGGRLRLSCAASGYIFKSYVMGWYRQAPGKERELVAAITWSGGSTYYADSVKGRFTISRDNAKNTVYLQMNSLKPEDTAVYYCAAYPRRYRTTYDYWGQGTQVTVSS	high polyreactivity
QVQLVESGGGLVQAGGRLRLSCAASGYIFYYNAIGWYRQAPGKERELVAAITSDDSTYYADSVKGRFTISRDNAKNTVYLQMNSLKPEDTAVYYCNAVRYGHWYDYWGQGTQVTVSS	low polyreactivity
QVQLVESGGGLVQAGGRLRLSCAASGYTFEGYAMGWDRQAPGKERELVAAISRSGGRRYYADSVKGRFTISRDNAKNTVYLQMNSLKPEDTAVYYWAAGGYYQRTRGYWGQGTQVTVSS	high polyreactivity
QVQLVESGGGLVQAGGRLRLSCADSGFTFDANAMGWYRQAPGKEPELVAAISLSDGSTYYADSVKGRFTISRDNAKNTVYLQMNSLKPEDTAVYYCNAERFGSGLAWLLFDYWGQGTQVTVSS	low polyreactivity
QVQLVESGGGLVQAGGRLRLSCADSGRTFPLYVMGWYRQAPGKERELVAAISARGGSTYYADSVKGRFTISRDNAKNTVYLQMNSLKPEDTAVYYCATLVTNGRYDSWGQGTQVTVSS	high polyreactivity
QVQLVESGGGLVQAGGRLRLSCAPSGLIFQHNSMGWYRKATGKERELVASITWDGGSTYYADSVKGRFTISRDNAKNTVYLQMNSLKPEDTAVYYCAARFDSFWVEYDYWGQGTQVTVSS	low polyreactivity
QVQLVESGGGLVQAGGRLRLSCDASGITFISNTMGWSRQAPGKERELVAAISWTGGSTYYADSVKGRFTISRDNAKNTVYLQMNSQKPEDTAVYYCNAVRYYVYSTQYDYWGEGTQVTVSS	high polyreactivity
QVQLVESGGGLVQAGGRLRLSCDASGRIFTYNAMGWYRQAPGKERELVGAITFSGGGTYYADSVKGRFTISRDNAKNTVYLVMTSLKPEDTAVYYCNQVSFGYSTYGYWGQGTQVTVSS	low polyreactivity
QVQLVESGGGLVQAGGRLRLSCDASGSTFVKYAMGWYRQAPGKERELVARISSSGGSTYYADSVKGRFTISRDNAKNTVFLQMNSLKPEDTAVYYCAAPSLIAKYDYWGQGTHVTVSS	high polyreactivity
QVQLVESGGGLVQAGGRLRLSCVASGSIFSGNAMGWYRQARGKERELVAAITRSGTSTYYADSVKGRFTISRDNAKNTVYLQMNSVKPEDTAVYYCATQYGRQRRAMYYWGQGTQVTVTS	high polyreactivity
QVQLVESGGGLVQAGGRLRLSFAASGLTFWWYAMGWYRQAPGKERELVAAIDSADITNYADSVKGRFTISRDNAKNTVYLQMNSLKPEDTAVYYCAAGRDYYVVNYVLFLFDYWGQGTQVTVSS	high polyreactivity
QVQLVESGGGLVQAGGRLRLSSAASGFTLVLNAMGWYIPAPGKERELVAAIRRSAGSTYYADSVKGRFTISRDNAKNTVYLQMNRLKPEDTAVYYCAAGFLWAKYAYGHWGQATQVTVSS	low polyreactivity
QVQLVESGGGLVQAGGRLRLSSAASGSTFHGYAMGWYRQEPGKERELVAAITSGDSTNYADSVKGRFTISRDNAKKTVYLQMNSLKPEDTAVYDCNAEGSSVLTGYWGYPPYWDTYVYWGQGTQVTVSA	low polyreactivity
QVQLVESGGGLVQAGGRLRLSSDASGLTFPTNAMGRYRQAHGKETEFVAAITSRGGTTYYADSVKGRFTISRDNAKNTVYLQMNSLKPEDTAVYYCAALSVTIYQSYRYGYWGQGTQVTVSS	low polyreactivity
QVQLVESGGGLVQAGGRLRLTCAASGITFTGNAMGWYRQAPGKERELVAVITSGGSTYYADSVKGRFTISRDNAKNTVYLQMNSLKPEDTAVYYCAAPVYYYYSKAMDYWGQGTQVTVSS	high polyreactivity
QVQLVESGGGLVQAGGRLRLTCAASGLTFYSYAMRCYRQAPAKERELVAAISWTGGSTYYADSEKGRFTISRDNAKNTVYLQMNSLKPEDTAVYYCAAVDYWVSGDYYWGQGTQVTVSS	high polyreactivity
QVQLVESGGGLVQAGGRLRVSCAASGFTFNCYTMGGSRQAPGKERELVAAITWSGGSTYYADSVKGRFTISRDNAKNSVYLQMNSLIPEDTAVYYCAVYPYGSQYYALDYWGQGTQVTVSS	high polyreactivity
QVQLVESGGGLVQAGGRLRVSCAASGSTFAWYAMGWYRQAPGKERELVAAISSGGRTYYADSVKGRFTISRDNAKNTVDLQMNSLKREDTAVFSCNADDWAYGMDYWGQGSQVTVSS	low polyreactivity
QVQLVESGGGLVQAGGRLSLSCAASGRTFYRYAMGWYRQAPGKDRELVAAISTRGGTTYYADSVKGRFTFSRDNAKNSVYLQMNSLKPEDTAVYYCAADSVYAEYDSWGQGTQVTVSS	low polyreactivity
QVQLVESGGGLVQAGGRLSLSCAASGSIFLYYAMGWYRQAPGKEREFVADISRSGGSTYYADSVKGRFTISRDNAKNTVYLQMNSLKPEDTAVYYCAASFYRYFVSLCYDYWGQGTQVSVSS	high polyreactivity

Sequence	polyreactivity (PSR sort gate)
QVQLVESGGGLVQAGGRLSLSCAASGSIFRPNPMGWYRQAPGKERELVAAITWSGDSTYYADSVKGRFTISRDNAKNTVYLKMNSLKPEDTAVYYCAADFTYQGSSANDYWGQGTQVTVSS	low polyreactivity
QVQLVESGGGLVQAGGRLSLSCSASGSIFEQKAMGWYRKAPGKEREFVATISDGGGTYYADSVKGRFTISRDNAKNTVYLQINSLKPEDNAVYYCAATFGGSVFVYDYWGQGTQVTLSS	low polyreactivity
QVQLVESGGGLVQAGGSFRLSCAASGSIFVVYDMGCYRQAPGKERELVAAITSGGSTYYADSVKGRFTISRDNAKNTVYLQMNSLKPEDTAVYYCAADSYEGYDYWGQGTQVTVSS	low polyreactivity
QVQLVESGGGLVQAGGSGRLSCAASGRIFAGYAMGWYIQAPGKERELVAAISSSGGSTYYSDSVKGRFTISRDNAKNSVYLQMNSLKPEDTAVYYCADRGKRNTPQRFYYWGQGTQVTVSS	high polyreactivity
QVQLVESGGGLVQAGGSHGLSCAASGRTFYYYAMGWYRPAPGKERELVAAITSGGRTYYADSVKGRFTISRDNAKNTDYLQMNRLKPEDTAVYYCAADLSDPDWSRYQWDMDYWGQGTQVTVSS	low polyreactivity
QVQLVESGGGLVQAGGSHPLSCAASGRTFGHNAMRSYRQAPGKERELVAAITRSGGRTFYADSVKGRFTISRDNAMNTVYLQMNSLKPEDTAVFYCATDYYRYRDYAYYWLDYNYWGQGTQVTVSS	high polyreactivity
QVQLVESGGGLVQAGGSHRISCAASGRTLPSYAMGWYRQAPGKERELVAAISYSGASTYYADSVKGRFTISRDNAKNTVYLQMNSLKPQDTAVYYCAVYRTFRYRYDSWGQGTQVTVSS	high polyreactivity
QVQLVESGGGLVQAGGSHRLRCAASGRIFHVYAMGWYRQAPGKERELVAAISSGDRTYYADSVKGRFIISRDNAKNTVYLQMISLKPEDTAVYYCWRYPADESNYWGQGTQVTVSS	low polyreactivity
QVQLVESGGGLVQAGGSHRLRCADSGFTFYSNAMGCYRQAPGKERELVASITWSGGNTYYADSVKGRFTISRDKAKTTVYLQMNSLKPEDTAVYYCAAGYSRDVQGYARAYRFYYWGQGTQVTVSS	high polyreactivity
QVQLVESGGGLVQAGGSHRLSCAASARILYRNAMGRYRQAPGKERELVAAITTRGTSTYYADSVKGRFTISRDNANNTVYLQMNSLKPEDTAVYYCNKVTRDLTQGYDYWGQGTQVTVSS	high polyreactivity
QVQLVESGGGLVQAGGSHRLSCAASGFIFVRNAMGWYRQAPGKERELVAAISSSGGSTNYADSVKGRFTISRDNAKNTVYLQMNSLKPEDTAVYYCNVVTFRYYYKYGYWGQGTQVTVSS	high polyreactivity
QVQLVESGGGLVQAGGSHRLSCAASGFTFVNNALGWYRQPPGKEREFVAPISSDGGSTYYADSVKGRFTMSRDNAKNTVYLQMNSLKPEDTAVYYCAKVYPYRTYDTSYYHYHYDSWGQGTQVTVSS	low polyreactivity
QVQLVESGGGLVQAGGSHRLSCAASGFTFVTYAMGWYRQAPGKERELVATISWGGGGTYYADSVKGRFTMSRDNAKNTVYFQLNSLKPEDTAVYYCAADNCYHYNFDYWGQGTQVTVSS	low polyreactivity
QVQLVESGGGLVQAGGSHRLSCAASGGIFYFNAMGWYRQAPGKERELVASITWSGGNTYYADSVKGRFTISRDNAKNTVYLQMNSLKPEDTAVYYCAADTQEYRPTYDYWGQGTQVTVSS	low polyreactivity
QVQLVESGGGLVQAGGSHRLSCAASGIIFWRYAMGWYRQAPGKERELVAGITSRGGSTYYADSVKGRFTISRDNAKNTVYLQMNSLKPEDTAVYFCNADWFGQLWWGVDYWGQGTQVTVSS	high polyreactivity
QVQLVESGGGLVQAGGSHRLSCAASGIILYHYAMGWYRQAPGKERELVATITSGGSTNYADSVKGRFTISRDYAKNTVDLQMNSLKPEDTAVYYCAAVPSRYGRYRYYYWGQGTQVTVSS	high polyreactivity
QVQLVESGGGLVQAGGSHRLSCAASGIIYYYNTMGWYRQAPGKEREFVAAISNSGGRTYYADSVKGRFTISRDNAKNTVYLQMNSLKPEDTAVYYCAARYVLFSNRFDYWGQGTQVTVSS	high polyreactivity
QVQLVESGGGLVQAGGSHRLSCAASGITFTGYGMGWYRQAPGKERELVAAIRLRTGSTYFADSVKGRFTISRDNAKNTVYLQMNSLKPEDTAVYYCNKVTVYRFRGVSWGQGTQVTVSS	high polyreactivity
QVQLVESGGGLVQAGGSHRLSCAASGITFYWYAMGWYRQAPGKERELVAAITRSVGSTYYADSVKGRFTISRDNAKNTVYLQMNSLKPEDTAVYYCAADFYYYGFDYWGQGTQVTVSS	low polyreactivity
QVQLVESGGGLVQAGGSHRLSCAASGRIFEDYAMGWYRQAPGKERELVARISSGDSTNYADSVNGRFTLSRDNAKNTVYLQMNSLKPEDTAVYYCAAEGGVQEFDYWGQGTQVTVSS	low polyreactivity
QVQLVESGGGLVQAGGSHRLSCAASGRIFSTYAMGWYRQAPGKERELVAAINKIGGSTYYADSVKGRFTISRDNAKNNVYLQMNSLKPEDTAVDYCAADAPHYPVRRYYYWGQGTQVTVSS	low polyreactivity
